{
  "source": "paper PMC4234702",
  "about": "(Cellular and molecular life sciences : CMLS, 2014)",
  "molecular_target": "the molecule itself",
  "assay": "crystal structure",
  "data": [
    {"protein": "cell-free expressed Δ7 DgkA (thermostabilized mutant of diacylglycerol kinase) (enzyme, Escherichia coli) ANNTTGFTRIIKAAGYSWKGLRAAWINEAAFRQEGVAVLLCVVIAAWLDVDAVTRVLLISSVMLVMIVELLNSAIEAVVDRIGSEYHELSGRAKDLGSAAVLIAIIDAVITWAILLWSHFG", "values": [
      {"measurement": "stoichiometry N", "result": 3}
    ]}
  ]
}
